To fix the notation:
B1: NRC3_wobSeed76_DR3_G19T_o1 (dsDNA)
DNA 1: GCCCTACTGGGCCAAAAATGTCATTGATGCCGATAAGCGATTGACAGCGTAGAATGAAGG
DNA 2: CCTTCATTCTACGCTGTCAATCGCTTATCGGCATCAATGACATTTTTGGCCCAGTAGGGC
B2: NRC3_random_hg19_434_o1 (dsDNA)
DNA 1: GCCACATGAAAGCTGACAACAGAAGCACTCCAACACGCGATTGACAGCGTAGAATGAAGG
DNA 2: CCTTCATTCTACGCTGTCAATCGCGTGTTGGAGTGCTTCTGTTGTCAGCTTTCATGTGGC
B3: NRC3_wobSeed88_DR3_T12A_o1 (dsDNA)
DNA 1: GCTAGCCTAGGACATGCGGGCCAGTATAGTGTCGGCGCGATTGACAGCGTAGAATGAAGG
DNA 2: CCTTCATTCTACGCTGTCAATCGCGCCGACACTATACTGGCCCGCATGTCCTAGGCTAGC
B4: NRC3_wobSeed38_DR1_A14T_o1 (dsDNA)
DNA 1: GCCCTGCTAGGTCTATGGTCAGCTAAAGCAGCTCGCGCGATTGACAGCGTAGAATGAAGG
DNA 2: CCTTCATTCTACGCTGTCAATCGCGCGAGCTGCTTTAGCTGACCATAGACCTAGCAGGGC
B5: NRC3_wobSeed114_DR4_T12A_o1 (dsDNA)
DNA 1: GCAATACAGGGACATCGTAGGCCAGAGTACGCACAGGCGATTGACAGCGTAGAATGAAGG
DNA 2: CCTTCATTCTACGCTGTCAATCGCCTGTGCGTACTCTGGCCTACGATGTCCCTGTATTGC
B6: NRC3_wobSeed136_DR5_A14C_o1 (dsDNA)
DNA 1: GCTAGCCTAGGTCCTTCAGGGGCCAGTATAGAAAGCGCGATTGACAGCGTAGAATGAAGG
DNA 2: CCTTCATTCTACGCTGTCAATCGCGCTTTCTATACTGGCCCCTGAAGGACCTAGGCTAGC
B7: NRC3_random_hg19_265_o1 (dsDNA)
DNA 1: GCCTCCCTCCTCCCATCCTCCACTTTCCCATAGGCCGCGATTGACAGCGTAGAATGAAGG
DNA 2: CCTTCATTCTACGCTGTCAATCGCGGCCTATGGGAAAGTGGAGGATGGGAGGAGGGAGGC
B8: NRC3_random_hg19_202_o1 (dsDNA)
DNA 1: GCTCTCTGGTACCAGTGAAGAAGACGTCCAGGTGGCGCGATTGACAGCGTAGAATGAAGG
DNA 2: CCTTCATTCTACGCTGTCAATCGCGCCACCTGGACGTCTTCTTCACTGGTACCAGAGAGC
B9: NRC3_wobSeed87_DR3_T12A_o1 (dsDNA)
DNA 1: GCCGAACTAGGACATCCAGGACAGTGAATACATTGAGCGATTGACAGCGTAGAATGAAGG
DNA 2: CCTTCATTCTACGCTGTCAATCGCTCAATGTATTCACTGTCCTGGATGTCCTAGTTCGGC
B10: NRC3_wobSeed40_DR1_T12C_o1 (dsDNA)
DNA 1: GCTAGCCTAGGCCATGGGCCAGTATACCACGCGAACGCGATTGACAGCGTAGAATGAAGG
DNA 2: CCTTCATTCTACGCTGTCAATCGCGTTCGCGTGGTATACTGGCCCATGGCCTAGGCTAGC
B11: NRC3_wobSeed100_DR4_C23A_o1 (dsDNA)
DNA 1: GCCCTACTGGGCCACGAAAGGTAATTGATTCAGTGAGCGATTGACAGCGTAGAATGAAGG
DNA 2: CCTTCATTCTACGCTGTCAATCGCTCACTGAATCAATTACCTTTCGTGGCCCAGTAGGGC
B12: NRC3_wobSeed138_DR5_G10A_o1 (dsDNA)
DNA 1: GCGATACAGAGTCAGCTAGAGGCCAGAGTATGGAAAGCGATTGACAGCGTAGAATGAAGG
DNA 2: CCTTCATTCTACGCTGTCAATCGCTTTCCATACTCTGGCCTCTAGCTGACTCTGTATCGC
B13: NRC3_wobSeed86_DR3_C13A_o1 (dsDNA)
DNA 1: GCGCTGCTAGGTAAGGTTGGTCAGCTAACGGGTACGGCGATTGACAGCGTAGAATGAAGG
DNA 2: CCTTCATTCTACGCTGTCAATCGCCGTACCCGTTAGCTGACCAACCTTACCTAGCAGCGC
B14: NRC3_random_hg19_357_o1 (dsDNA)
DNA 1: GCAACAGATTTCATTGAGGTGATCTACTTCGTTTCTGCGATTGACAGCGTAGAATGAAGG
DNA 2: CCTTCATTCTACGCTGTCAATCGCAGAAACGAAGTAGATCACCTCAATGAAATCTGTTGC
B15: NRC3_wobSeed66_DR2_G11A_o1 (dsDNA)
DNA 1: GCAATACAGGATCACTAGGCCAGAGTAGGTACGAATGCGATTGACAGCGTAGAATGAAGG
DNA 2: CCTTCATTCTACGCTGTCAATCGCATTCGTACCTACTCTGGCCTAGTGATCCTGTATTGC
B16: NRC3_wobSeed90_DR3_A14C_o1 (dsDNA)
DNA 1: GCCATACAGGGTCCGCTAGGCCAGAGTAGGGACGGCGCGATTGACAGCGTAGAATGAAGG
DNA 2: CCTTCATTCTACGCTGTCAATCGCGCCGTCCCTACTCTGGCCTAGCGGACCCTGTATGGC
B17: NRC3_random_hg19_331_o1 (dsDNA)
DNA 1: GCACAATCCCTACACTTTAGGAAGTCACAGTCTAGTGCGATTGACAGCGTAGAATGAAGG
DNA 2: CCTTCATTCTACGCTGTCAATCGCACTAGACTGTGACTTCCTAAAGTGTAGGGATTGTGC
B18: NRC3_wobSeed93_DR3_G10T_o1 (dsDNA)
DNA 1: GCAGTCAAATTTCATCTAGGTAACGTAAGATATGCTGCGATTGACAGCGTAGAATGAAGG
DNA 2: CCTTCATTCTACGCTGTCAATCGCAGCATATCTTACGTTACCTAGATGAAATTTGACTGC
B19: NRC3_random_hg19_75_o1 (dsDNA)
DNA 1: GCCTGAAACTACCTTATCTCTATTCTAGGCTTAAGCGCGATTGACAGCGTAGAATGAAGG
DNA 2: CCTTCATTCTACGCTGTCAATCGCGCTTAAGCCTAGAATAGAGATAAGGTAGTTTCAGGC
B20: NRC3_wobSeed124_DR5_T23A_o1 (dsDNA)
DNA 1: GCCCTACTGGGCCATTCAGAGGACATTGATCATATGGCGATTGACAGCGTAGAATGAAGG
DNA 2: CCTTCATTCTACGCTGTCAATCGCCATATGATCAATGTCCTCTGAATGGCCCAGTAGGGC
B21: NRC3_random_hg19_4_o1 (dsDNA)
DNA 1: GCGTAGTTGTGTCCTCTCCTGTTCTCTCTTCTACTGGCGATTGACAGCGTAGAATGAAGG
DNA 2: CCTTCATTCTACGCTGTCAATCGCCAGTAGAAGAGAGAACAGGAGAGGACACAACTACGC
B22: NRC3_wobSeed16_DR0_C13G_o1 (dsDNA)
DNA 1: GCCAGCCTAGGTGAGGGCCAGTATAGGAGGAACGTTGCGATTGACAGCGTAGAATGAAGG
DNA 2: CCTTCATTCTACGCTGTCAATCGCAACGTTCCTCCTATACTGGCCCTCACCTAGGCTGGC
B23: NRC3_random_hg19_459_o1 (dsDNA)
DNA 1: GCAAACACAACAGTACCTACCTTAAGCAGTTCATCAGCGATTGACAGCGTAGAATGAAGG
DNA 2: CCTTCATTCTACGCTGTCAATCGCTGATGAACTGCTTAAGGTAGGTACTGTTGTGTTTGC
B24: NRC3_wobSeed28_DR1_A21C_o1 (dsDNA)
DNA 1: GCCCTACTGGGCCAAAGGTCCTTGATTCCAATGCTCGCGATTGACAGCGTAGAATGAAGG
DNA 2: CCTTCATTCTACGCTGTCAATCGCGAGCATTGGAATCAAGGACCTTTGGCCCAGTAGGGC
B25: NRC3_wobSeed34_DR1_A9T_o1 (dsDNA)
DNA 1: GCATCGAATGGTCGAAGGTGAGTATACCCACCCGAAGCGATTGACAGCGTAGAATGAAGG
DNA 2: CCTTCATTCTACGCTGTCAATCGCTTCGGGTGGGTATACTCACCTTCGACCATTCGATGC
B26: NRC3_wobSeed15_DR0_G11C_o1 (dsDNA)
DNA 1: GCCGAACTAGCTCAAGGACAGTGAATCTCCGCACGCGCGATTGACAGCGTAGAATGAAGG
DNA 2: CCTTCATTCTACGCTGTCAATCGCGCGTGCGGAGATTCACTGTCCTTGAGCTAGTTCGGC
B27: NRC3_random_hg19_179_o1 (dsDNA)
DNA 1: GCGGGAGGTGTAAGGATCCTTGTGCACTGCTTGGGAGCGATTGACAGCGTAGAATGAAGG
DNA 2: CCTTCATTCTACGCTGTCAATCGCTCCCAAGCAGTGCACAAGGATCCTTACACCTCCCGC
B28: NRC3_wobSeed117_DR4_T11C_o1 (dsDNA)
DNA 1: GCCGTCAAAGCTCAACTAAGGTAACGTAAAGCACGCGCGATTGACAGCGTAGAATGAAGG
DNA 2: CCTTCATTCTACGCTGTCAATCGCGCGTGCTTTACGTTACCTTAGTTGAGCTTTGACGGC
B29: NRC3_wobSeed30_DR1_G17A_o1 (dsDNA)
DNA 1: GCACTAGCAGGCCAAGAGTCACTCAAGATTAGTCCGGCGATTGACAGCGTAGAATGAAGG
DNA 2: CCTTCATTCTACGCTGTCAATCGCCGGACTAATCTTGAGTGACTCTTGGCCTGCTAGTGC
B30: NRC3_wobSeed21_DR0_A14T_o1 (dsDNA)
DNA 1: GCCGTCAAAGTTCTAGGTAACGTAACAGAAAGCAGCGCGATTGACAGCGTAGAATGAAGG
DNA 2: CCTTCATTCTACGCTGTCAATCGCGCTGCTTTCTGTTACGTTACCTAGAACTTTGACGGC
B31: NRC3_random_hg19_324_o1 (dsDNA)
DNA 1: GCCAGTGATGCACACCTGTAACCCTAGCACTTTGGGGCGATTGACAGCGTAGAATGAAGG
DNA 2: CCTTCATTCTACGCTGTCAATCGCCCCAAAGTGCTAGGGTTACAGGTGTGCATCACTGGC

The data set deals with RARb:RXRa (Homo sapiens, UniProt P10826;P19793 full;full). Briefly: no ligand; PBM; 270 nM : 90 nM RXRa; PBS pH 7.4, 2% milk, 0.02% Triton X-100, 1 mM DTT, BSA, 0.4 mg/ml salmon testes DNA. To be noted: tags: His kept;His cleaved; copies: 1;1; label: surface-attached array probe. An outline of the steps: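 Custom Agilent 4×180K protein-binding microarrays carried double-stranded probes. Their 34-nt variable regions held direct-repeat seeds, single-nucleotide variants, half-site ablations and random human genomic background sequences. Arrays were incubated 1 h with ligand-free nuclear receptor dimers in PBS pH 7.4, 2% milk, 0.02% Triton X-100, 1 mM DTT, 0.2 mg/mL BSA and 0.4 mg/ml salmon testes DNA. Antibodies against each partner (one per run) detected binding, and scanned fluorescence was regression-normalized. Binding z-scores use random background probes as reference.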
Chain of RARb:RXRa (P10826 whole entry, chain 1 of 2): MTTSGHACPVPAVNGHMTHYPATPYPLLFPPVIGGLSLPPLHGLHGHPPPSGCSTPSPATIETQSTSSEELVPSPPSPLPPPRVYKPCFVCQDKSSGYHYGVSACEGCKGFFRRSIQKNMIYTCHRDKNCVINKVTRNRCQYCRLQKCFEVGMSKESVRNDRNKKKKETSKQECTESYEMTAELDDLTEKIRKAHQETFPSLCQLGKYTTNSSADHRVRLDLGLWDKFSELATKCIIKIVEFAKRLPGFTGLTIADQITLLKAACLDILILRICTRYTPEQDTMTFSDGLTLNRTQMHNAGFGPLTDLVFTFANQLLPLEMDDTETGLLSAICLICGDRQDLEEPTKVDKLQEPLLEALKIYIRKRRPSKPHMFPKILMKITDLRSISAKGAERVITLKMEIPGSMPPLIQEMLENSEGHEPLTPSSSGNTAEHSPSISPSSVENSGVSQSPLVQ
Chain of RARb:RXRa (P19793 whole entry, chain 2 of 2): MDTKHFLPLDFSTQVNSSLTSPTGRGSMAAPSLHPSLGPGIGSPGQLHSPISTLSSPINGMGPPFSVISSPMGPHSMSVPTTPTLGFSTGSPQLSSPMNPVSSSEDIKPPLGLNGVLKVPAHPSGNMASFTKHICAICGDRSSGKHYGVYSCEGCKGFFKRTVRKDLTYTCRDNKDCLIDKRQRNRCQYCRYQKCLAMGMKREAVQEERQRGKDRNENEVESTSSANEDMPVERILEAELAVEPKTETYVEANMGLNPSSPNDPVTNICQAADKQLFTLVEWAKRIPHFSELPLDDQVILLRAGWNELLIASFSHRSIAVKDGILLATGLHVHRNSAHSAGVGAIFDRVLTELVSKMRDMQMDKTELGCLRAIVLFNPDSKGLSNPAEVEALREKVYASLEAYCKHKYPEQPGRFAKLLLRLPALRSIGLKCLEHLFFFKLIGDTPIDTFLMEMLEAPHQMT
With B1, the binding signal was 0.29 PBM z-score against 500 random probes. The same measure for B2: -0.24 PBM z-score against 500 random probes; for B3: -0.15 PBM z-score against 500 random probes; for B4: 0.39 PBM z-score against 500 random probes. As for B5, the binding signal was 0.47 PBM z-score against 500 random probes. The same measure for B6: 0.43 PBM z-score against 500 random probes; for B7: 0.13 PBM z-score against 500 random probes. In the case of B8, the binding signal was -0.14 PBM z-score against 500 random probes. The same measure for B9: 0.14 PBM z-score against 500 random probes; for B10: 0.19 PBM z-score against 500 random probes; for B11: 0.41 PBM z-score against 500 random probes. The figure for B12 is 0.27 PBM z-score against 500 random probes. The figure for B13 is 0.16 PBM z-score against 500 random probes. On to B14, for which the binding signal was -0.12 PBM z-score against 500 random probes. As to B15, the binding signal is 0.18 PBM z-score against 500 random probes. As to B16, the binding signal was 0.26 PBM z-score against 500 random probes. As to B17, the binding signal is 0.39 PBM z-score against 500 random probes. The figure for B18 is 0.23 PBM z-score against 500 random probes; for B19 it is 0.33 PBM z-score against 500 random probes; for B20 it is 0.46 PBM z-score against 500 random probes. On to B21, for which the binding signal was 0.3 PBM z-score against 500 random probes. The same measure for B22: 0.33 PBM z-score against 500 random probes; for B23: 0.25 PBM z-score against 500 random probes; for B24: 0.42 PBM z-score against 500 random probes. The same measure for B25: 0.4 PBM z-score against 500 random probes; for B26: 0.3 PBM z-score against 500 random probes. The same measure for B27: 0.23 PBM z-score against 500 random probes; for B28: 0.06 PBM z-score against 500 random probes; for B29: 0.46 PBM z-score against 500 random probes. Take B30: the binding signal was 0.4 PBM z-score against 500 random probes. Consider B31, for which the binding signal is 0.04 PBM z-score against 500 random probes.

Values taken from paper PMC6555819, “Comprehensive study of nuclear receptor DNA binding provides a revised framework for understanding receptor specificity”.
